These results are taken from patent US20100293752, “DEVICE FOR DECELERATING THE ROTATION OF A HINGE IN PARTICULAR FOR FURNITURE AND A HINGE PARTICULARLY FOR FURNITURE HAVING SAID DECELERATION DEVICE” (published 2010).

This series has as its target osteopontin (OPN) (Homo sapiens, UniProt P10451 P10451:17-314). The series is described as follows: filter; double-filter nitrocellulose, selection buffer, 37 C; OPN species not specified for this assay. Conditions: label: 5'-32P; stem-loop (predicted, mFold). The protocol: The RNA-protein equilibrium dissociation constant (Kd) of OPN-R3 was characterized using the double-filter nitrocellulose filter binding method (Gopinath, Anal. Bioanal. Chem. 387:171 (2007)). For all binding assays, RNAs were dephosphorylated using bacterial alkaline phosphatase (Invitrogen, Carlsbad, Calif.) and 5′-end labeled using T4 polynucleotide kinase (New England Biolabs, Beverly, Mass.) and γ-³²P-ATP (MP Biomedicals, Solon, Ohio). Direct binding assays were carried out by incubating ³²P-labeled RNA at a concentration of less than 0.1 nM and target protein at concentrations ranging from 300 nM to 10 μM in selection buffer at 37° C. The fraction of RNA bound was quantified with a PhosphorImager (Molecular Dynamics, Sunnyvale, Calif.). Raw binding data were corrected for nonspecific background binding of radiolabeled RNA to the nitrocellulose filter.

osteopontin (OPN), sequence (P10451 17-314, one chain of several): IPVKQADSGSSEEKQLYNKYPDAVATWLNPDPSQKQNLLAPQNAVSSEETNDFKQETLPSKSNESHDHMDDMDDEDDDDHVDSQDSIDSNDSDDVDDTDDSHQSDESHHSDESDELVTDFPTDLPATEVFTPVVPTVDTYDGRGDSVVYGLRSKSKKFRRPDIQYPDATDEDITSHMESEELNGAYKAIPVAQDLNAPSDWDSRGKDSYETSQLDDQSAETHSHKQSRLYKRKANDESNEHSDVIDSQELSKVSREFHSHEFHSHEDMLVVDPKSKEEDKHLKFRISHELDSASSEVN

B1: OPN-R3 32P-labelled (ssRNA)
RNA: CGGCCACAGAAUGAAAAACCUCAUCGAUGUUGCAUAGUUG
modifications: 2'-F on all C and U
With B1, the Kd was 18 nM.

As usually defined, the Kd is the free concentration of one partner at which half of the binding sites on the other are occupied at equilibrium, for simple one-to-one binding.
